# Measurements from paper PMC3045603.
# Experiments:
# [1] = biological target: wild-type yeast ScNep1 with an N-terminal hexahistidine tag (S. cerevisiae) (UniProt Q06287); assay: SEC
# [2] = biological target: yeast ScNep1^D90G (Bowen-Conradi syndrome mutation) with an N-terminal hexahistidine tag (S. cerevisiae) (UniProt Q06287); assay: SEC
substance,measurement,setting,value
wild-type yeast ScNep1 with an N-terminal hexahistidine tag (from UniProt Q06287 1-252) (enzyme),Kd,[1],134 µM
yeast ScNep1^D90G (Bowen-Conradi syndrome mutation) with an N-terminal hexahistidine tag (from UniProt Q06287 1-252) (enzyme),Kd,[2],5.8 µM
same,stoichiometry N,[2],2
